Each block holds one molecule with its values, some of them ahead of it.
What was measured:
human CD47 protein [1] = molecular target: T1, human CD47 protein (human, UniProt Q08722 19-139, limits assumed); test: ELISA on human CD47 protein, antibody 15 ug/ml
T1 construct: also called human CD47 antigen

human CD47 protein [2] = molecular target: T1, human CD47 protein; test: ELISA on human CD47 protein, antibody 45 ug/ml
human CD47 protein [3] = molecular target: T1, human CD47 protein; test: ELISA on human CD47 protein, antibody 1.67E+00 ug/ml
human CD47 protein [4] = molecular target: T1, human CD47 protein; test: ELISA on human CD47 protein, antibody 1.85E-01 ug/ml
human CD47 protein [5] = molecular target: T1, human CD47 protein; test: ELISA on human CD47 protein, antibody 2.06E-02 ug/ml
human CD47 protein [6] = molecular target: T1, human CD47 protein; test: ELISA on human CD47 protein, antibody 2.29E-03 ug/ml
human CD47 protein [7] = molecular target: T1, human CD47 protein; test: ELISA on human CD47 protein, antibody 5.00E+00 ug/ml
human CD47 protein [8] = molecular target: T1, human CD47 protein; test: ELISA on human CD47 protein, antibody 5.56E-01 ug/ml
human CD47 protein [9] = molecular target: T1, human CD47 protein; test: ELISA on human CD47 protein, antibody 6.17E-02 ug/ml
human CD47 protein [10] = molecular target: T1, human CD47 protein; test: ELISA on human CD47 protein, antibody 6.86E-03 ug/ml
human CD47 protein [11] = molecular target: T1, human CD47 protein; test: ELISA on human CD47 protein, antibody 7.62E-04 ug/ml
human CD47 protein [12] = molecular target: T1, human CD47 protein; test: ELISA on human CD47 protein, OD450nm against log Ab conc; EC50 row of the table drawn under the plot; fit of the flat control curve
human CD47 protein [13] = molecular target: T1, human CD47 protein; test: ELISA on human CD47 protein, antibody 0 ug/ml (blank)
human CD47 protein [14] = molecular target: T1, human CD47 protein; test: ELISA on human CD47 protein, OD450nm against log Ab conc; EC50 row of the table drawn under the plot; the curve has no lower plateau in the range shown
human CD47 protein [15] = molecular target: T1, human CD47 protein; test: SPR Biacore, supernatant antibody Fc-captured, human CD47 analyte 5 nM
Method: Production and affinity ranking of humanized antibodies. The designed plasmids of heavy chain and light chain were sent for 3 mL transfection following GenScript's SOP. For affinity ranking, Antibodies were captured on the sensor chip through Fc capture method. Human CD47 protein was used as the analyte. The surface was regenerated before the injection of another antibody. The process was repeated until all antibodies were analyzed. The off-rates of antibodies were obtained from fitting the experimental data locally to 1:1 interaction model using the Biacore® T200/8K evaluation software. The antibodies were ranked by their dissociation rate constants (off-rates, kd).

human CD47 protein [16] = molecular target: T1, human CD47 protein; test: SPR Biacore, purified IgG Fc-captured, human CD47 analyte 0.3125-10 nM
Text: Affinity measurement of purified humanized IgGs. The affinity of purified antibody binding to human CD47 was individually determined using a Surface Plasmon Resonance (SPR) biosensor, Biacore® T200/8K (GE Healthcare). Antibodies were captured on the sensor chip through Fc capture method. Human CD47 protein was used as the analyte. The data of dissociation (kd) and association (ka) rate constants were obtained using Biacore T200/8K evaluation software. The equilibrium dissociation constants (KD) were calculated from the ratio of kd over ka.

T1 sequence (Q08722 19-139 limits assumed): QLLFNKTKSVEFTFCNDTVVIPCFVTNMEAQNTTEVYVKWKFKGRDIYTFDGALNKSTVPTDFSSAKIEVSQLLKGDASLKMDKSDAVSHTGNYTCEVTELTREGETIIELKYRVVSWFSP

Molecule: Isotype control (antibody)
ELISA signal (human CD47 protein [1]): 0.49 | ELISA signal (human CD47 protein [2]): 0.543 | ELISA signal (human CD47 protein [3]): 0.454 | ELISA signal (human CD47 protein [4]): 0.551 | ELISA signal (human CD47 protein [5]): 0.48 | ELISA signal (human CD47 protein [6]): 0.287 | ELISA signal (human CD47 protein [7]): 0.562 | ELISA signal (human CD47 protein [8]): 0.553 | ELISA signal (human CD47 protein [9]): 0.445 | ELISA signal (human CD47 protein [10]): 0.387 | ELISA signal (human CD47 protein [11]): 0.211 | EC50 (human CD47 protein [12]): 3.42 ng/mL

B1: 32G8H6 (antibody, V domains shown)
VH: EVQLQQSGPELVKPGASVKLSCKASGYTFTSSVIHWVKQKPGQGLEWLGYINPYSDGTKFNEKCKIKATLTSDKSSSTAYMELSSLTSEDSAVYYCARGLIGTRYDSWFAYWGQGTLVTVSA
VL: DIQMTQNGSSLSASLGDRVTISCRTSQDINNYLNWYQQKQDGTVKLLIYYTSRLHSGVPSRFSGSGSGTDYSLTIRNLEQEDIATYFCQQGNTLPYTFGGGTKLEIK
notes: Mouse hybridoma antibody; also called parent mAb (32G8H6); 32G8H6 (mAb)
ELISA signal (human CD47 protein [1]): 3.87 | ELISA signal (human CD47 protein [2]): 3.83 | ELISA signal (human CD47 protein [3]): 3.71 | ELISA signal (human CD47 protein [4]): 3.81 | ELISA signal (human CD47 protein [5]): 3.33 | ELISA signal (human CD47 protein [6]): 2.68 | ELISA signal (human CD47 protein [7]): 3.78 | ELISA signal (human CD47 protein [8]): 3.8 | ELISA signal (human CD47 protein [9]): 3.73 | ELISA signal (human CD47 protein [10]): 2.98 | ELISA signal (human CD47 protein [11]): 2.32 | ELISA signal (human CD47 protein [13]): 0.086 | EC50 (human CD47 protein [14]): 6.55 ng/mL

More lines, now with the values ahead:

ELISA signal (human CD47 protein [1]): 3.39 | ELISA signal (human CD47 protein [2]): 3.48 | ELISA signal (human CD47 protein [3]): 3.32 | ELISA signal (human CD47 protein [4]): 3.34 | ELISA signal (human CD47 protein [5]): 2.9 | ELISA signal (human CD47 protein [6]): 2.4 | ELISA signal (human CD47 protein [7]): 3.48 | ELISA signal (human CD47 protein [8]): 3.32 | ELISA signal (human CD47 protein [9]): 3.19 | ELISA signal (human CD47 protein [10]): 2.64 | ELISA signal (human CD47 protein [11]): 1.71 | ELISA signal (human CD47 protein [13]): 0.162 | Kd (human CD47 protein [15]): 0.34 nM | koff (human CD47 protein [15]): 0.00261 s⁻¹ | kon (human CD47 protein [15]): 7.69e+06 M⁻¹ s⁻¹ | Kd (human CD47 protein [16]): 0.482 nM | koff (human CD47 protein [16]): 0.00255 s⁻¹ | kon (human CD47 protein [16]): 5.3e+06 M⁻¹ s⁻¹
B2: chimeric-VH+VL-1 (antibody, human IgG4, V domains shown)
VH: B1 VH
VL: B1 VL
notes: also called chimeric antibody

ELISA signal (human CD47 protein [1]): 1.39 | ELISA signal (human CD47 protein [2]): 1.95 | ELISA signal (human CD47 protein [3]): 0.663 | ELISA signal (human CD47 protein [4]): 0.475 | ELISA signal (human CD47 protein [5]): 0.342 | ELISA signal (human CD47 protein [6]): 0.276 | ELISA signal (human CD47 protein [7]): 0.918 | ELISA signal (human CD47 protein [8]): 0.56 | ELISA signal (human CD47 protein [9]): 0.435 | ELISA signal (human CD47 protein [10]): 0.44 | ELISA signal (human CD47 protein [11]): 0.255 | ELISA signal (human CD47 protein [13]): 0.251
B3: chimeric-VH+VL2 (antibody, human IgG4, V domains shown)
VH: B1 VH
VL: DIQMNQSPSSLSASLGDTITITCHASQNINVWLSWYQQKPGNIPKLLIYKASNLHTGVPSRFSGSGSGTGFTLTISSLQPEDIATYYCQQGQSYPLTFGAGTKLELK

From US20220204613A1 (D 10 THERAPEUTICS, published 2022)
